According to patent US20220112273A1 (University of Pennsylvania, published 2022):

B1: HIV-1 Env-Fab (Fab generated from the VRC01 antibody, expressed from pHIV-1Env-Fab) (Fab, V domains shown)
VH: QVQLVQSGGQMKKPGESMRISCRASGYEFIDCTLNWIRLAPGKRPEWMGWLKPRGGAVNYARPLQGRVTMTRDVYSDTAFLELRSLTVDDTAVYFCTRGKNCDYNWDFEHWGRGTPVIVSS
VL: QIVLTQSPGTLSLSPGETAIISCRTSQYGSLAWYQQRPGQAPRLVIYSGSTRAAGIPDRFSGSRWGPDYNLTISNLESGDFGVYYCQQYEFFGQGTKVQVDI
B2: CHIKV-Env-Fab (Fab, V domains shown)
VH: QVQLVQSGSELKKPGASVKVSCKASGYTLTRYAMTWVRQAPGQGLEWMGWINTYTGNPTYVQGFTGRFVFSLDTSVSTAFLHITSLKAEDTAVYFCAREGGARGFDYWGQGTLVTVSS
VL: QSVLTQPPSVSGAPGQRVTISCTGSSSNIGASHDVHWYQQLPGTAPTLLIYVNSNRPSGVPDRFSGSKSGTSASLAITGLQAEDEADYYCQSYDSNLSGSAVFGGGTKLTVLG
B3: CHIKV-IgG (full-length anti-CHIKV Env human IgG from a single plasmid) (antibody, V domains shown)
VH: QVQLQQPGAALVKPGASAMMSCKASGYTFTSYWITWVKQRPGQGLEWIGDIYPGTGRTIYKEKFKTKATLTVDTSSSTAFMQLNSLTSEDSAVYYCARGYGSPYYALDYWGQGTSVTVSS
VL: DIVLTQSPASLAVSQGQRATISCKASQSVDYDGDSYVNWYQQKPGQSPKLLIYDASNLESGIPARFSGSGSGTDFTLNIHPVEEEDVATYYCQESNEDPRTFGGGTKLEIKR

What was measured:
[1] = target: Env of pseudotyped HIV-1 Bal26 virus (clade B, tier 1) (HIV-1 (clade B, Bal26)); experiment: cell-based or functional assay
[2] = target: Env of pseudotyped HIV-1 Q23Env17 virus (clade A, tier 1) (HIV-1 (clade A, Q23Env17)); experiment: cell-based or functional assay
[3] = target: Env of pseudotyped HIV-1 SF162S virus (clade B, tier 1) (HIV-1 (clade B, SF162S)); experiment: cell-based or functional assay
[4] = target: recombinant HIV-1 Env (subtype B; MN) protein (HIV-1 (subtype B, MN), UniProt P05877 32-513); experiment: binding ELISA, serial dilutions of day 14 mouse sera (FIG. 64A)

Binder	plateau percent neutralization (TZM-Bl luciferase assay, sera at 1:50) [1] [%]	plateau percent neutralization (TZM-Bl luciferase assay, sera at 1:50) [2] [%]	plateau percent neutralization (TZM-Bl luciferase assay, sera at 1:50) [3] [%]	binding result [4]
B1	~62	~60	~70	
B2				no binding
B3				no binding
